Assay [1] has as its target N-terminal domain of Chlamydomonas reinhardtii BBS1 (residues 1–425) (Chlamydomonas reinhardtii). Kind of assay: ITC. Background: In ITC the heat of successive injections is recorded.
The target of assay [2] is N-terminal domain of Homo sapiens BBS1 with the patient mutation E234K (Homo sapiens) (UniProt Q8NFJ9). Briefly: ITC.

The source of these data is PMC4255524.

Usually Kd stands for the free concentration of one partner at which half of the binding sites on the other are occupied at equilibrium, for simple one-to-one binding. High values mean a looser complex, low ones a tighter complex. Usually stoichiometry N stands for a count of units in the complex or per binding partner.

UniProt Q8NFJ9, sequence (Q8NFJ9 1-417 E234K): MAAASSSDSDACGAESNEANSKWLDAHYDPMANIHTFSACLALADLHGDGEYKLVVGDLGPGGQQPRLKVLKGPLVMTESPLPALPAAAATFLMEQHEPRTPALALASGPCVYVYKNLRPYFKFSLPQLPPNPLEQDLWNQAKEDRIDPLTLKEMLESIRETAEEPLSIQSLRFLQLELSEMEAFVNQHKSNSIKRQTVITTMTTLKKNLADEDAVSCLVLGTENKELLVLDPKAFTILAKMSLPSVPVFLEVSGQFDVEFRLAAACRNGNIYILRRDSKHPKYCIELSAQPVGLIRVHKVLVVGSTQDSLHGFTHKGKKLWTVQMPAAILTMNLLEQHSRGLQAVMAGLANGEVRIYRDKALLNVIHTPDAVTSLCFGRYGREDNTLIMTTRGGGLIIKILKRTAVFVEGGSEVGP

Turning to “Chlamydomonas reinhardtii ARL6ΔN (residues 1–15 deleted), GTP-bound (domain or fragment)”, in assay [1], the Kd is 350 nM and the stoichiometry N was determined as 1.

B1: untagged Homo sapiens ARL6 Q73L ΔN (domain or fragment)
chain: KEVHVLCLGLDNSGKTTIINKLKPSNAQSQNILPTIGFSIEKFKSSSLSFTVFDMSGLGRYRNLWEHYYKEGQAIIFVIDSSDRLRMVVAKEELDTLLNHPDIKHRRIPILFFANKMDLRDAVTSVKVSQLLCLENIKDKPWHICASDAIKGEGLQEGVDWLQDQIQTVKT
For the molecule B1, the Kd in assay [2] worked out at 350 nM.
